PMC4431184, “The Use of the LanthaScreen TR-FRET CAR Coactivator Assay in the Characterization of Constitutive Androstane Receptor (CAR) Inverse Agonists” (Sensors (Basel, Switzerland), 2015)
Ends that are not written are not given here.

Target: T1, glutathione-S-transferase (GST) tagged human CAR ligand-binding domain (LBD) (human)
T1 construct: Component of a bought kit; It was held in the assay by a terbium-labelled anti-GST antibody (a tool only); also called CAR LBD; CAR-LBD
T1 sequence (Q14994 whole entry, looked up): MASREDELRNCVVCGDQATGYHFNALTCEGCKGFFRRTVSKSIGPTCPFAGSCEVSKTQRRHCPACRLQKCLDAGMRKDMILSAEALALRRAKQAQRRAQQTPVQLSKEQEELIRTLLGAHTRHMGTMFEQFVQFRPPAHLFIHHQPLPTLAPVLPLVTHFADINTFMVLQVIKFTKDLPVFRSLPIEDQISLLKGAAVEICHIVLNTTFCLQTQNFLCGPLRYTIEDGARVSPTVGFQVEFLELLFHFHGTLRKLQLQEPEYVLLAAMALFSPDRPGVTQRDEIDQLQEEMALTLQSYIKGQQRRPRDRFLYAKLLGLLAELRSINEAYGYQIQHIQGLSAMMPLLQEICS
Assay: FRET or BRET; LanthaScreen TR-FRET as a1, with the agonist CITCO 10 uM; three orders of adding the reagents (Figure 2A, 2B, 2C standard)
Details: both partners purified

fold of TR-FRET ratio with CITCO 10 uM over vehicle control (order: CAR LBD, peptide and antibody, CITCO): 1.94 fold
fold of TR-FRET ratio with CITCO 10 uM over vehicle control (order: CITCO, peptide and antibody, CAR LBD): 2.26 fold
fold of TR-FRET ratio with CITCO 10 uM over vehicle control (standard order): 2.56 fold
B1: fluorescein-labeled PGC1α coactivator peptide (peptide)
chain: EAEEPSLLKKLLLAPANTQ
modifications: also: fluorescein label, position not given here
